Experimental data taken from PMC8592465.

How the values were obtained:
[1] = target: GfcD-biotin (from pBH31, His-tag removed, biotinylated) (Escherichia coli O127:H6 str. E2348/69) (UniProt P75882); experiment: BLI; biotinylated GfcD on streptavidin sensor, GfcB, GfcC or GfcBC in solution 3.75-60 μM, 25°C, 20 mM Tris-HCl pH 7.5, 150 mM NaCl, 0.1 mg/mL BSA, 0.02% DDM; 1:1 model
[2] = target: GfcC (expressed from pMCSG7 without signal sequence, His6-tag removed) (Escherichia coli O127:H6 str. E2348/69) (UniProt P75883); experiment: ITC; 100 μM GfcB injected into 10 μM GfcC, 25°C, 20 mM Tris-HCl pH 7.5, 150 mM NaCl; 1:1 model
[3] = target: GfcB-biotin (from pMCSG7, His6-tag removed, biotinylated) (Escherichia coli O127:H6 str. E2348/69) (UniProt P75884); experiment: BLI; biotinylated GfcB on streptavidin sensor, GfcC in solution 0.2-1.6 μM, 25°C, 20 mM Tris-HCl pH 7.5, 150 mM NaCl, 0.1 mg/mL BSA; fit 1:1 and 1:1 with conformational change
[4] = target: GfcD (expressed from pBH31, residues 22-698, His-tag removed by TEV) (Escherichia coli O127:H6 str. E2348/69) (UniProt P75882); experiment: ITC; 160 μM GfcB-GfcC complex injected into 20 μM GfcD, 25°C, 20 mM Tris-HCl pH 7.5, 150 mM NaCl, 0.02% DDM; 1:1 model, n held at 1.0
[5] = target: His6-GfcB (from pMCSG7, tag kept) (Escherichia coli O127:H6 str. E2348/69) (UniProt P75884); experiment: cross-linking; purified proteins mixed at 5 μM in 20 mM Hepes, 150 mM NaCl, 0.06% DDM pH 7.5, cross-linked with DSP 1 hour at room temperature, SDS-PAGE, blots with anti-polyhistidine and anti-GfcC
[6] = target: GfcC-biotin (from pMCSG7, His6-tag removed, biotinylated) (Escherichia coli O127:H6 str. E2348/69) (UniProt P75883); experiment: BLI; biotinylated GfcC on streptavidin sensor, GfcB (C-terminal His6, pETBlue2) in solution 0.1-1.6 μM, 25°C, 20 mM Tris-HCl pH 7.5, 150 mM NaCl, 0.1 mg/mL BSA; fit 1:1 and 1:1 with conformational change

## GfcB (expressed from pMCSG7 without signal sequence, His6-tag removed) (from UniProt P75884 16-214) (natural protein)
[1]
  Kd: 14200 nM
  koff: 0.00926 s⁻¹
  kon: 652 M⁻¹ s⁻¹
[2]
  Kd: 99.8 nM
  dH: -6.92 kcal/mol
  stoichiometry N: 1.01

## GfcC (expressed from pMCSG7 without signal sequence, His6-tag removed) (from UniProt P75883 23-248) (natural protein)
[1]
  Kd: 257000 nM
  koff: 0.0286 s⁻¹
  kon: 111 M⁻¹ s⁻¹
[3]
  KD (1:1 with conformational change, binding step): 1010 nM
  Kd: 374 nM
  ka1 (1:1 with conformational change, binding step): 59900 M⁻¹ s⁻¹
  kd1 (1:1 with conformational change, binding step): 0.0603 s⁻¹
  kd2 (1:1 with conformational change, conformational step): 0.015 s⁻¹
  koff: 0.0196 s⁻¹
  kon: 52300 M⁻¹ s⁻¹

## GfcB-GfcC heterodimer (from UniProt P75884 16-214; P75883 23-248) (complex)
[1]
  Kd: 9160 nM
  koff: 0.00716 s⁻¹
  kon: 781 M⁻¹ s⁻¹
[4]
  Kd: 28400 nM
  dH: -7.24 kcal/mol

## His6-GfcB (from pMCSG7, tag kept) (from UniProt P75884 16-214) (natural protein)
[5]
  stoichiometry N: 2

## GfcB with C-terminal His6-tag expressed from pETBlue2(gfcB) (from UniProt P75884 16-214) (natural protein)
[6]
  KD (1:1 with conformational change, binding step): 407 nM
  Kd: 175 nM
  ka1 (1:1 with conformational change, binding step): 80400 M⁻¹ s⁻¹
  kd1 (1:1 with conformational change, binding step): 0.0328 s⁻¹
  kd2 (1:1 with conformational change, conformational step): 0.0107 s⁻¹
  koff: 0.0126 s⁻¹
  kon: 71700 M⁻¹ s⁻¹
